Test results as given in patent publication US20150191546A1 (University of Texas, published 2015).

Experiments:
[1] = target: T1, PR1/HLA-A*0201 on the cell surface (human); experiment: flow cytometry, 8F4 staining of MDA-MB-231 cells after 24 h with NE
T1 construct: also called PR1-pulsed T2 cells; PR1/HLA-A2 on HLA-A2+ AML blasts
Protocol: (§1) Mean 6 SEM fold increase of the MFI of PR1/HLA-A2 versus unpulsed cells is shown from duplicate experiments. ANOVA followed by Tukey test was performed using Prism 5.0 software (*p=0.01, **p, 0.0001).

[2] = target: T1, PR1/HLA-A*0201 on the cell surface; experiment: flow cytometry, 8F4 staining of MDA-MB-231 cells after 24 h with P3
Protocol: as §1

[3] = target: T2, recombinant PR1/HLA-A*0201 monomer (human); experiment: SPR (Biacore), 8F4 immobilized/captured, soluble PR1/HLA-A*0201 as analyte
T2 construct: Folded recombinant monomer; also called PR1/HLA-A2; PR-1/HLA-A2

[4] = target: T2, recombinant PR1/HLA-A*0201 monomer; experiment: SPR (BIAcore 3000), antibody captured on anti-mouse surface, peptide/HLA-A2 as analyte, 25 C; inset table, column KD (the text and the box under the plot round it to 9.9 nM)
Protocol: The test antibodies were captured onto anti-mouse antibody-coated surfaces. The analyte, peptide/HLA-A2, was diluted to 100 nM and tested in duplicate for binding to the antibody-coated surfaces. The analysis was performed at 25 C using PBS, 0.005% Tween-20, 0.1 mg/ml BSA, pH 7.4 as the running buffer.

[5] = target: T2, recombinant PR1/HLA-A*0201 monomer; experiment: ELISA, biotinylated PR1/HLA-A2 on streptavidin, anti-human kappa HRP
Protocol: An ELISA plate was first coated with 100 μl/well of 5 μg/ml streptavidin (Jackson ImmunoResearch, West Grove, Pa.) in PBS. After washing wells with Wash Buffer (PBS containing 0.05% Tween 20) and blocking with Block Buffer, 50 μl/well of 2 μg/ml biotinylated PR1/HLA-A2, which had been provided by Dr. Molldrem, was added. After 30 min incubation at room temperature, the ELISA plate was washed with Wash Buffer. […] After incubating the ELISA plate for 1 hr at room temperature and washing with Wash Buffer, bound antibodies were detected using 100 μl/well of 1/2,000-diluted HRP-conjugated goat anti-human kappa chain polyclonal antibody. After incubating for 30 min at room temperature and washing with Wash Buffer, color development was performed by adding 100 μl/well of ABTS substrate. Color development was stopped by adding 100 μl/well of 2% oxalic acid. Absorbance was read at 405 nm.

[6] = target: T2, recombinant PR1/HLA-A*0201 monomer; experiment: ELISA on PR1/HLA-A2 monomer-coated plate, anti-human detection [panel B]
Description: (§2) The inventors used recombinant PR1/HLA-A2 monomer-coated plates to capture the antibody, and anti-human antibodies were used in a colorimetric assay to determine the bound fraction by optical density (OD).

[7] = target: T2, recombinant PR1/HLA-A*0201 monomer; experiment: ELISA on recombinant PR1/HLA-A2 monomer-coated plates; Hu8F4-2 (Hu2)
Description: as §2

[8] = target: T2, recombinant PR1/HLA-A*0201 monomer; experiment: ELISA on recombinant PR1/HLA-A2 monomer-coated plates; Hu8F4-1 (Hu1)
Description: as §2

Binder	EC50 [5] [µg/mL]	EC50 (read off the curve) [6] [ng/mL]	also measured
8F4 mouse monoclonal antibody (IgG2a-kappa, anti-PR1/HLA-A*0201) (antibody, V domains shown, In the flow cytometry and confocal assays the antibody carried an Alexa Fluor 647 label; the letters do not carry it., Mouse IgG2a-kappa from hybridoma; Used with Alexa-647 label in flow cytometry and confocal assays; also called mouse 8F4; 8F4-4) VH: EVQLVESGGDLVKPGGSLKLSCAASGFTFSGYGMSWVRQTPDKRLEWVATISSGGSYTYYPDSVKGRFTISRDNAKNTLYLQMSSLKSEDTAMYYCARHEGGYYGSSPAWFVYWGQGTLVTLSA VL: DIVMTQSHKFMSTSVGDRVSITCKASQDVSTAVAWYQQKPGQSPKLLIYSTSYRYTGVPDRFTGSGSGTVFTFTINSVQAEDLAVYYCQQHFITPPTFGGGTKLEIK	–	–	fold increase in PR1/HLA-A2 (8F4 MFI) versus unpulsed cells [1]: 2.5 fold; fold increase in PR1/HLA-A2 (8F4 MFI) versus unpulsed cells [2]: 3 fold; Kd [3]: 9.9 nM; Kd [4]: 9.85 nM
Ch8F4 chimeric 8F4 IgG1/kappa antibody (antibody, V domains shown, Mouse 8F4 VH/VL on human gamma-1 and kappa constant regions) VH: EVQLVESGGDLVKPGGSLKLSCAASGFTFSGYGMSWVRQTPDKRLEWVATISSGGSYTYYPDSVKGRFTISRDNAKNTLYLQMSSLKSEDTAMYYCARHEGGYYGSSPAWFVYWGQGTLVTLSA VL: DIVMTQSHKFMSTSVGDRVSITCKASQDVSTAVAWYQQKPGQSPKLLIYSTSYRYTGVPDRFTGSGSGTVFTFTINSVQAEDLAVYYCQQHFITPPTFGGGTKLEIKR	0.054	~8	–
Hu8F4-2 humanized 8F4 IgG1/kappa antibody (Hu8F4 VH and VL2) (antibody, VL2 has Asp instead of Val at position 70 of VL1; also called Hu2-8F4; Hu2) heavy: not shown light: DIQMTQSPSSLSASVGDRVTITCKASQDVSTAVAWYQQKPGKAPKLLIYSTSYRYTGVPSRFSGSGSGTDFTFTISSLQPEDIATYYCQQHFITPPTFGGGTKVEIKRTVAAPSVFIFPPSDEQLKSGTASVVCLLNNFYPREAKVQWKVDNALQSGNSQESVTEQDSKDSTYSLSSTLTLSKADYEKHKVYACEVTHQGLSSPVTKSFNRGEC	0.07	~8	Kd [7]: 7.8 nM

Continued, in another order:

EC50 [5] [µg/mL]	EC50 (read off the curve) [6] [ng/mL]	Binder	also measured
0.05	~8	Hu8F4-1 humanized 8F4 IgG1/kappa antibody (Hu8F4 VH and VL1) (antibody, V domains shown, Human IgG1/kappa; also called Hu1-8F4; Hu1) VH: EVQLVESGGGLVQPGGSLRLSCAASGFTFSGYGMSWVRQAPGKGLEWVATISSGGSYTYYPDSVKGRFTISRDNAKNSLYLQMNSLRAEDTAVYYCARHEGGYYGSSPAWFVYWGQGTMVTVSS VL: DIQMTQSPSSLSASVGDRVTITCKASQDVSTAVAWYQQKPGKAPKLLIYSTSYRYTGVPSRFSGSGSGTVFTFTISSLQPEDIATYYCQQHFITPPTFGGGTKVEIKR	Kd [8]: 7.7 nM
0.07	–	Hu8F4-2-AA humanized 8F4 IgG1-AA/kappa antibody (antibody, Hu8F4 VH and VL2 on human IgG1 with Leu234Ala and Leu235Ala (Eu numbering); Signal peptide may be included) heavy: not shown light: DIQMTQSPSSLSASVGDRVTITCKASQDVSTAVAWYQQKPGKAPKLLIYSTSYRYTGVPSRFSGSGSGTDFTFTISSLQPEDIATYYCQQHFITPPTFGGGTKVEIKRTVAAPSVFIFPPSDEQLKSGTASVVCLLNNFYPREAKVQWKVDNALQSGNSQESVTEQDSKDSTYSLSSTLTLSKADYEKHKVYACEVTHQGLSSPVTKSFNRGEC	–
